# Reference: patent US7097990B2, “Method of screening cell death inhibitor” (Astellas Pharma Inc., priority 2001, dated 2006)
# Biological target: PARP (Cricetulus griseus, UniProt Q9R152)
# Experiment: PARP inhibition in transfected CHO dhfr- cells, 3H-NAD incorporation
# Settings: H2O2 0.06%; cells co-expressing LTRPC2 and PARP-1 dominant negative mutant versus LTRPC2 alone
# PARP, sequence (Q9R152 2-1013): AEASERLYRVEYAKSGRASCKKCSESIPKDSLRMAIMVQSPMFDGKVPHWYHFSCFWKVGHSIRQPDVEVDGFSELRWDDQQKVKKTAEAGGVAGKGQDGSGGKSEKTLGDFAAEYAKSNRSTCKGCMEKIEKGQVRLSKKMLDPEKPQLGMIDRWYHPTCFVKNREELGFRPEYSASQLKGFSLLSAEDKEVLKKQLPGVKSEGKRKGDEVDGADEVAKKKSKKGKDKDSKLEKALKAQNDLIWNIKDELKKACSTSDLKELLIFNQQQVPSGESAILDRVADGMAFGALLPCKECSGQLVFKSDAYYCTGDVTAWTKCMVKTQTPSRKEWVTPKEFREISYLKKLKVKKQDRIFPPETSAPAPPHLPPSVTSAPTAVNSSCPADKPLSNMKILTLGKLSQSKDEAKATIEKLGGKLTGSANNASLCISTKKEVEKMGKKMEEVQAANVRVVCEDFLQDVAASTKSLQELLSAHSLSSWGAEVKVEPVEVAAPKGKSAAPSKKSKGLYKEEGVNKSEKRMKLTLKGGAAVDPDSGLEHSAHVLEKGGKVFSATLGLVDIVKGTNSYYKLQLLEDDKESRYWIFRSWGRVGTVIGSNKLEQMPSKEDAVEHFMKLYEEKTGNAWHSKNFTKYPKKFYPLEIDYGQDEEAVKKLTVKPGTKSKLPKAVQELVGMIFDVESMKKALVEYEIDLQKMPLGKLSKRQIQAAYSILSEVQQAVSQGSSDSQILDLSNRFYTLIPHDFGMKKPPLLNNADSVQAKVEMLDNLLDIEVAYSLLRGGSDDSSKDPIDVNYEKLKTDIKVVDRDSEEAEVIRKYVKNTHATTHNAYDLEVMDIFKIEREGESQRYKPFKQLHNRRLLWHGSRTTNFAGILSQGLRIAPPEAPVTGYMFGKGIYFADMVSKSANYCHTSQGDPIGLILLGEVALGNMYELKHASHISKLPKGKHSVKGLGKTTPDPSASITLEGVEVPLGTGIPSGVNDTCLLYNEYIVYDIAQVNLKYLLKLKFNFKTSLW
substance,measurement,value
"PARP-1 dominant negative mutant: human PARP-1 DNA binding region (positions 1 to 374), amino acid sequence SEQ ID NO:20, co-expressed in cells",3H radioactivity in comparison with the control cells,67%
